The values below come from the domain aggregation screens of Martell et al. (2025).

A short description of this data set: soluble fraction after stress (log2 fold change); higher = more stays soluble; pooled small domains, quantitative proteomics. To be noted: stress: 50 degC. In short, it runs like this: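 The measure of aggregation propensity here is the base-two logarithm of the fold change in the soluble amount of each protein after stress. A higher value means more of that protein stays in solution. Stress was applied at 50°C to pooled libraries of small protein domains, read out by high-throughput quantitative proteomics.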
Take “HMQDNLKKYMDKLSQRDAELIVYKYLWNMSEKEISEMFHIKQEQVHVYVGRAKKRLFKIIKKEME”: the “soluble fraction (log2)” value was -0.025. As to “HMQDRDKNIEEGRQLVLHEMDRLDLVDEPLHDVARQLNMKAVEDMFAAVGAGDLRLGQIIHQLLKQADTN”, the “soluble fraction (log2)” value was -0.0442. For “HMQDSIYYAQYRINIRNMPSSEGMVISRASVGEALEVLDWQEQWSKVRKQSGVEGYVASRLLTK”, the “soluble fraction (log2)” value was -1.24.

With “HMQDTIDLVIQVNGKLRGQMNVPKDTDRATIEQLAINLENVQKIVAGNAIKKIIIVPGRLINIVVSKNL”, the “soluble fraction (log2)” value is -0.925.

For the sequence “HMQDTYQVKLLTNLNIRKSPNGTIVQKGGAKKGIIYTIVETSGTWGRLKSNAGWISVSDKYVTK”, the “soluble fraction (log2)” value is -3.43. On to “HMQDVKRYLVNSNQLNVRTGPGKEFEISESLNKGDAVTLLHKESNGWWEVITSTGQGYVYSSMLTKDPW”, for which the “soluble fraction (log2)” value was -0.525. “HMQDVVERIKKYKQLFSITSEELSKRSGIPLGTLNKILSSSTKSIKTETLAAIAKGLDVSVSDLVGREK”: the “soluble fraction (log2)” value was determined as 0.0602. Take “HMQEAGKWLKKLRTERKITLEQLSKKTGLSVGFLSQFERGLTSIAIDTLEKIAAVFNVTIDYFISP”: the “soluble fraction (log2)” value is 0.0423. As to “HMQEEFVAPDVKDGAIVLHKAFGEGTVTKIDKAQKHIRVTFGVGEKTFIFPDAFKQGFLRMKG”, the “soluble fraction (log2)” value was found to be 0.348.

As for “HMQEERLTFDTLLGISGIGPRLALAVLSRFTPGSLAAAVDAGDTKAFSAVPGVGNRTASRIILELKGKL”, the “soluble fraction (log2)” value is -0.771. As to “HMQEGPGLVPDFRGQTMREVLRGGQSLGVRVAVDGTGLAVAQTPEPGSPLNKVSQVTVSFRPP”, the “soluble fraction (log2)” value came out at 0.0873. As for “HMQEINLIGVTGNDLERSALVKLLDGEIIKLSVGDNLNGGRVVDISAVTLTYLKSGQSITLKLPK”, the “soluble fraction (log2)” value was -1.01. Take “HMQELGVISEGKYNIELNMVSWNDREPKYDIRSWAPDHSRMGKGISLTEEEMERLVELWNTRNE”: the “soluble fraction (log2)” value was -0.248. The figure for “HMQELKWERNYKLVQDYIKQYGVLPSKNTKYANVSIGRWLTNQHELVKEDNLAPERFEKIKELDT” is -0.233.

On to “HMQENDLGAVEKIVDDVLHDPKNAQAVADFKAGSEKVLGFLTGQVMKASRGKANPSVVQEVLRQKLKN”, for which the “soluble fraction (log2)” value was -0.00966.

“HMQENVIIYPNPTKSVIYLSEKVEFILYNILGEIIFIGDNNKIDLNSFDNGVYIFESGNVRTQIIK”: the “soluble fraction (log2)” value was found to be 0.0489. Take “HMQEQIVQGIVKYFDAEKQFGFIAGDDGVDRFFNAKSIQGNAVKTGDRVRFLAISHIRGPRALKISA”: the “soluble fraction (log2)” value is -0.852. In the case of “HMQEQSSYVGQFGTAATTLRPSGTVELEDGTRIDVVTVGEFIEKGEPVQVVRKDGTWLVVEKRRSK”, the “soluble fraction (log2)” value was found to be 0.286. “HMQERKYTVSFNTNGGSTINDQKITSGNVIISPGAPKRSGYTFVGWYYHGQPFDLNTKINQDYVLVAKWIK”: the “soluble fraction (log2)” value was -1.16.

Take “HMQETILFGQQKAINNLSSDTGLSENDLDSYLKKRYKKPLYQLTQSEGADIINGFQDGSLSKNSILDYIKP”: the “soluble fraction (log2)” value worked out at 0.16. Turning to “HMQEVKVRLKPDYLGEVLIKVISDKGELKAELFVSNSQVRSLLRAYAVEFQNQIRDQGYNFSEINVYR”, the “soluble fraction (log2)” value was -0.551.

Consider “HMQFAEIPNFSEMALQILRLQADGLSITKIAEALHMNPRTVKYHAQENYRKLQASNKSEALLAARNLNL”, for which the “soluble fraction (log2)” value was -1.3. For the sequence “HMQFEIGDTVRVHVNIREGERERVQMFEGTVIAKRGSGVSETFTVRRVSYGVGVERVFPVNSPNV”, the “soluble fraction (log2)” value turned out to be 0.105. The figure for “HMQFETVQDAFNHYRNASLEEIESRAAEIKGIIESDPEADVRALNIEIEGLHQAKQNILEKQKTK” is -0.0753. In the case of “HMQFLGKVTVTHARQANLRAQPSMDAAIVGKVNPGEVYNVVSIPKTSWYEIQLQNGKTVFIAAGMVSFRM”, the “soluble fraction (log2)” value is -0.557.

In the case of “HMQFSAVVLDMETRRQVAGVAVYINPKGVVKTDMRGRFVIDGAFNSVTLVRQGYESLTLERSEMTDSIWM”, the “soluble fraction (log2)” value is -1.65. As to “HMQGEASDAQLKAIFAIARKLGITDDFEVHRKASRLAGVPEPEVLPSLKSLTYAQASAVIKALQEELE”, the “soluble fraction (log2)” value was found to be 0.084. For the sequence “HMQGENDVTIDPKKLTIGDLAKEISKIEDSEELNNILVAEKEGKGRKGAINAITERIENVSGGTG”, the “soluble fraction (log2)” value was determined as 0.133. On to “HMQGLIGEQKAIQIALSRVPGAKPEHVRELKLDYDDGMQLYEGEIFYNFREYEFEINAVTGEVVGWEI”, for which the “soluble fraction (log2)” value is -1.6. Take “HMQHRSRALHLQEELVRRYYDQAIAPFMIFWEMKANVTLDQLKELRAVVSPSLNEHPYTKQLDEYIRLAE”: the “soluble fraction (log2)” value is -0.505. As for “HMQIEQVDYGTFMTMIDDKKIDKVEIKDNQILFIGKDDNKKYKTGIVQDPQLAERLHASGAVFSQDI”, the “soluble fraction (log2)” value was -0.136.

In the case of “HMQIIGEQNQKDFIALFGAILRMRNLLLSFDEFKGNELISERDLQDYLGRYQDLRDEWRNKRRER”, the “soluble fraction (log2)” value stood at 0.0518. As for “HMQINDSSVVQKAVNDVIDQNSKAVSDYWDGKEGAAKFLMGQVMKLTRGQANPDLANQLILTRLQQERV”, the “soluble fraction (log2)” value came out at 0.264. Turning to “HMQISDEAALLAIVDRVIADNQGPLANYLGGKQSLLGWFVGQVMRATRGQAIPAVVNRLVGERLAAQREE”, the “soluble fraction (log2)” value was -0.627. Turning to “HMQISDESQLREVVSKILEENEQSVIDYKNGKTRAMGFIIGQVMKATRGKANPQLVNEIVKEMLDE”, the “soluble fraction (log2)” value turned out to be 0.097. As to “HMQISDTASIQEIAKEIIKSNPKAVEDYKKGKENALQFLVGQLMTKTKGTVHPGAARTILGDILK”, the “soluble fraction (log2)” value worked out at 0.0851. On to “HMQISDTSELEAVVQDILKANMDVVAKIKAGKTNSANFLMGQVMKLTKGRAKPDTVLQLILDAVKQ”, for which the “soluble fraction (log2)” value was -0.301. For the sequence “HMQISLAAARVNAGLTQEEVAKAMKVGKQTIVSWEKGNSEPKMSQSRELSELYKIPLDYIFYP”, the “soluble fraction (log2)” value is -0.322. The figure for “HMQITDSGAIETIIDKIIADNPGQVTQYLSGKDKVFGFFVGQTMKASQGKANPAEVNKILQEKLK” is 0.00553; for “HMQITQSSEPIDVSALRLGMFIHLEGGWLSHPFPRSSFKITSEDQLVTLRSLGISVLRWSPELSDPE” it is -0.834.

In the case of “HMQIVPVDYSTFMQSIDDKTVDHVEIQSNQILYTVKDDHKKYKTGIMNDPTLAQRLMESGATFTQD”, the “soluble fraction (log2)” value turned out to be 0.0939.

“HMQKAEQIGSLLREKRKSMGLTQDELAQQVEVRRQTLADLELGKNVGSHLLIKVMEHLGVGFDLL”: the “soluble fraction (log2)” value was -0.192. For “HMQKEIKVPDVANMALSEAVEKLQNEGFKVADEQKEVSSDEIEEGKVVKTSPVAGTKKTKGSEITIYISSG” the value was -0.0254; for “HMQKFLEATGENRDAAVENALEQLGLERDDVSVEVLEIGKKGFLGIGATPARVRVTYEAPDI”, -0.0313. As for “HMQKKEVTVPEVRSKSLKEAAQILSEQNLKYETEPVNVENPDMVVIDQFPKPGGKISEQSVIILYLR”, the “soluble fraction (log2)” value is at least 0.62. “HMQKLNIEEQIVYDIIFKNKELSANEIQIKSGIKTSILNALLINLEIKQYIKLKFGNFYEIK”: the “soluble fraction (log2)” value turned out to be 0.209. With “HMQKMPEMQILPNGKVKLPDFSGINMRKAAELLQYGKLRLQPYGSGTAYQQKPAAGTEVDEGTVVEIWF”, the “soluble fraction (log2)” value is -0.218. Take “HMQKNFYQILGVDSKASPATINAAYERAKSRVIQSGLEDPDTMALLRDAWETLADPGDRAAYDESLAT”: the “soluble fraction (log2)” value came to 0.0751.

“HMQKPELLAPAGSLEKAKTAFKYGADAVYMGTSNLSLRSRVTVDDDELIKTIEYAHSINKKVYAALNIYAR”: the “soluble fraction (log2)” value stood at 0.00596. As to “HMQKPWFYESSGQRKGGFSEQEMVGLITDGEITHGAIVWRNGLSDWTKLEQTELAAHLDKTA”, the “soluble fraction (log2)” value is -0.249.
